# Data published in publication PMC5331223, “Differential regulation of the Epr3 receptor coordinates membrane-restricted rhizobial colonization of root nodule primordia”.
# Biological target: NIN (520-878) (Lotus japonicus, UniProt Q9S7B1 520-878)
# Experiment: EMSA; 25 mM Tris-HCl pH 8.0, 80 mM NaCl, 35 mM KCl, 5 mM MgCl2, 10% glycerol, 1 mM DTT, 0.1% Triton; 25 nM probe, 2 ul protein (ERN1 0.75 mg/ml, NIN 1.0 mg/ml stock); 30 min at 30 C (ERN1) or 37 C (NIN); gel in 0.5x TBE
# Details: protein: recombinant; tags: His-tag (pET30); label: 6-FAM at 5' of strand 1; blunt
# Chain of NIN (520-878) (Q9S7B1 entry or part of it): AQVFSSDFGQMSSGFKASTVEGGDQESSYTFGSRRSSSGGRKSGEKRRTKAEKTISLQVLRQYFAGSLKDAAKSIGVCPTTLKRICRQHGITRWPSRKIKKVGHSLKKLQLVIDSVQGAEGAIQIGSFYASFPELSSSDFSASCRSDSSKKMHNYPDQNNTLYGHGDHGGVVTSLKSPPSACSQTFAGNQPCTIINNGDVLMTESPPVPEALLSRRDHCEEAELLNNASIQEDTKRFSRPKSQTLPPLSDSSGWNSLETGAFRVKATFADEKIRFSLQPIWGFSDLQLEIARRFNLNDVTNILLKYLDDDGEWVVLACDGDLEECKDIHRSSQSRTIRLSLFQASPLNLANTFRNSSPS
binder,measurement,value
Nin1 probe (Epr3 promoter wt) (dsDNA) DNA 1: ATACCCTGCCCTTACAGACAAGTATAAGAGGCACAAAA DNA 2: TTTTGTGCCTCTTATACTTGTCTGTAAGGGCAGGGTAT,binding result,binds
